According to the domain aggregation screens of Martell et al. (2025):

Assay: soluble fraction after stress (log2 fold change); higher = more stays soluble; pooled small domains, quantitative proteomics
Conditions: stress: 75 degC
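Further: 20 min heating vs room temperature control held 20 min.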

Sequence	soluble fraction (log2)
HMQYRQRRGLERMELILDAATRVVAEVGYERTTTNAIATRAGISPGSLYQYFSSKEDIASALWERYAE	-0.0812
HMRALPAGQADLLKWIDGVTPRSVEELELLSGLEPGRLSELLMELELAGIVRAVAGDSYIKISKS	-0.649
HMLSLDDAAFERYDLTMREREVLLLLLNRLTYEEIAERLFISTNTVKTHVGNVYKKTGVSSRKELVSK	-1.26
HMDPLGGFTKGDVDMDGRVAVNDAVMVLKNAIKLMELDTQQLMLADADNDGKITVNDAVMILKKAIKLID	-0.149
HMYVYEPGEFAVRGSILDVYSYASEFPYRIDFFGDDVESIRTFEVQTQLSKEAKDRVSIVPDTEQ	-0.258
HMNGYGALVRLGRSRGWVTVEEINDHLPESAVRTAENVQEITEALGRLSIKVFETRPDEDDLLIT	-0.458
HMYRYYSTLRPITPGAYPKPADNPAMLIHNFDNREYVGKIGREAWGYVEYNNPLTKEQIEAFDFVAE	0.0626
HMTWIAEIELRLMGNGAVTGAKIVKSTDLKDVDAAIYRAALEASPYPAPESGIGGRFTIKLKY	-0.037
HMTNQKEITYSQFRQELDQGSIKSVSLQGSRIRGTYVDGGISFRTLAPNDADLIPSLMKHKVDIQVLPED	0.292
HMDENVVLRKVAREAFVIEYVRGIRAIDPGIGGPKLWLMYKREFGDNDTVGRDTFEDILDRNNLKVRI	-4.06
HMLDDESLHFFYKKDGWEYWMKTTTENNYPIQLRKKIGDEKVQEYWNGDKEKKKIGASYFGV	-0.465
HMSGEDYLERILMLKEKHGNVRAIDIANSMNFSKPSVSIALHKLSENGYVVIQNNGAIELTEKGLEVAT	-0.455
HMLAKNDSGLNNHTFNAIRDALLEALADGPAEAKKLTENISFPSDKIITVIRFLADHDDRFSLEDGILSLT	-0.738
HMVEVPYSEFLKELDAGNVKDVYVSNGESQIQFTKKDQKQWNLSYKTGPIPGDDLVKRLQNADVENFT	0.109
HMASELVSADEKYSGLVSYLLGRVVVVDQIDHAIALAKKYRYSLRIVTLDGELLSPGGSMTGGAFKNS	0.169
HMDDLTTASIKQQLKALIDEENKNKPLSDQKLTDALKAQGIDISRRTVAKYREAMNIPGSSKRKRF	-0.0771
HMDLDYSGIMNVLNQKYHITFYNNKKIQNLMPKLMIIMGYNSIINEIGHSKSLKALINSFEEKLKSYILT	-3.19
HMLSRKEVFTVSQKDIEKNPIGAADKFFDGHVGIHKLLVVDEEDRLRGLFTLSDIERINDEQ	0.179
HMFHFELNAAKQALEDRKTIDRAKGILMRQRGMSEDDAYKLLRTTAMSQNRKVIDVAQALVTAADLL	-0.632
HMETLTPQEHKVLLLAVKGRTNGEIASELGIAQNTVKNHLAHIYAKMGVGNRTELASEYLRRIH	-0.203
HMGIVAQLPTIRVNGKTLYYYDAQSGDNIYSIAEKLGVTVEDIRANNPGVADGVKPRMRLFFPTSLAK	-0.377
HMKSNESAELGERMLNKALLALHTDSSKISDTQWQKLLRDYGAKNKQEILTDIGLGKRLNVMVAHQLMAMG	-0.271
HMNPESRRSELIDAATKLFFSRGYTATSIRDILDAVDDRTASPSVFYYYFESKEAIYQAVLQRYTD	-2
HMVDIVLDILKIVAEKQPGNQFSQSILMQYQERGGLSKKQLEGLYGKAKRIPEIPQNKLATLEAIILR	-1.84
HMTNELVNVNKLLDVMEPSIPLTALEIMTRLGIKSKETLRNSYLNPAIKLGMINLTSPLKPTSKNQMYYK	-1.02
HMGDKVTIPNLIDMKLTDAQNQYKPQGFSIVKNGERESDKEAGTILEQDKAAGTEISGKDIRIFVVVSSGS	0.0688

Sequence	soluble fraction (log2)
HMESKDIRYVQLQTVSPEEVLQALALIMPRSDVYVEPTGKLVVLHGSKETLDRAEELILALDNAV	-0.116
HMLDPIQEGKKMLNSRLSGFGITPNTRLMNKLLAAYNISSREEFYGRIGAGIEDLSTLREVLLKGT	-0.973
HMGSNTLEDAYKVLGITPDATDDEVRKAYKKMVIQHHPDKVANLGEDVKKAATIKLQEINNAKEIIFKARN	0.0129
HMEAPPHEALSNREFQVLQLLSQGRSVTQIAHQLTLSANTISTYRARIFDKLGLHNPADLYAYAARHGLM	-2.41
HMIAKEDDGTAFLIDGKISSEEEFKTISKDDILEVFVYKETEIAQKKLDSINSINNTYYTSLIEILLKE	≥ 1.04
HMLEQSYYEKTDEIIELHGAKASSLIPVMQDVQAEYRYLPGELLSYIADKLGIPLAKAYSVATFYENFS	-0.282
HMKDLQAISERMEEIISFAKANDNEISLFIVQDIIKNKKTGIDEDLLNMALYQIKEQGIKVLPA	-0.176
HMSRLLERARDLMAKPGAWLSAEGGAYALRLSPDRRSRISLTLTETEFRALIDQPGLRVRPGGGWSGRA	-3.05
HMSDAKKRAFSKDEILYSLKNRPFTSFDIESLFDDESKKTFIGLLDKGEISEKKVAGTIFYYLR	-0.817
HMDLIISDIRMPEMRGDDFLEWIKANELFKHIPVIMLSSEDSTTERIRLLEIGAEDYIVKPFNPMELKIR	-0.495
HMALTARDLGLTHRQADVLHLVLQGKPVKLIARDLGLAEGTVKSHVSAVLRALNVTTRTQAIVAAGRLGLM	-2.18
HMQSREISYSEFVTAVEAGDVRNVTLDGEQVRFRRADGSDYVTIRPEDAEVTKLLMANDIPVRAEP	0.116
HMKEKIIKEPYDLFTTDKIGQALEVQALLARQGIKVQRRVDGTKSTLFLENYTQSEKDQALLAVVRSGIV	-0.719
HMTPQGALDYSRNAKYLRDQVTAINYLKQARLSLNTTDANYRQTLEQINQAIAKHNQALQQAGVQSQQLAT	-0.00591
HMAEDLRTLDGIDEDLLRDLAQAGITTRDGLAELSIDELREITGVEPGEAEKIILAARAHWFETDE	0.0602
HMAKRMRNPNGYGSIVKLSGNRRNPYMVKVNTHMDERYYPVYDILGYYPTWADASIALAKYNDDPYNVS	-0.777
HMSKHLWNKVLPKVTTANITNLINQAIRKGEWRMDNKGVVHIIWRYRGKIIEVTGYLKDKVFNVGNAWVR	0.226
HMINLDYILELIFEKNNKTKDKTALIEEIRGVIRASVGNRAKESLIVDFINDTDLDTITDKASIIESFFEY	-2.97
HMQFETVQDAFNHYRNASLEEIESRAAEIKGIIESDPEADVRALNIEIEGLHQAKQNILEKQKTK	-0.179
HMRFNIGNVIEHYKLNTEDLAKVLFPTVKYPKQAFDRVLKGEANLDVIQLERLANHIGVLVTDLF	-1.18
HMQAESLTVVRSAELKADRFLDAATLQTLQTGQVVESLRTESGWVQVRIAGQQGWVRAMNVKGA	-1.1
HMRPILTLEEAKAKALAHAGLKADQVTFTEAKLDWDDGKQVYDIEFYTADFKEYDYEIDAKTGEVLEVDY	-0.466
HMIGIRLKELVLKNQSAWVGLRVSELDISRKTMIVMIRRGDKMLIPNGSTILRSGDVLLLYTR	-0.682
HMPPSVAETLKRLRRHKSLSLEELAQMSGVSRSMLSQIERDATNPTVATLWRITAALGVSIDEVLGV	-2.43
HMDNMFVEERQALIYEELQSNGRVRVKDLSKKFNVSEDLIRKDLNVLEKEGKLRKIYGGAVLAK	0.237
HMAFYQDIAVDLRKQIIDGVYPKNSRLPNQAELAKLYTTSRVTIQKALKILQIEGLIEGRQGSGSYVKGP	-2.11

Sequence	soluble fraction (log2)
HMILNWSEYTRSEIIELARDLSPDKYMIIDDINTYSKMKLLPSQAFIAEMFGSLRQFQKEAWGRE	-1.62
HMPAKDAEFTAFVRSATPTLTRTAYLLTGDRETASDLVQEAFVRTYLAWRRVRPEEATAYTRRVLVN	0.321
HMSYQNKLNYLINAFGGADNFQKLLGVGPSAISNYKSRKHLPLNQAKRLSKIAPQFGFSLDPHSLQIST	-0.856
HMSTTILSFQNRVVIETLHNEGRSLRYIANYLGFSKATIFNELHRLNSEYRAELAQADFERKVSQR	-3.06
HMNMFGIQRRNHLLSLLQEKKSITVQEAAVIFEVAEETIRRDFRTMEGQGLIVRTHGGALLADD	-4.21
HMEEDGAPLESREVLLDQAISQGKGTQWTIATETKLEDHIVSGAYSTDGKVTLAVFSPLGDGKYEFSSSVN	0.181
HMNIGSKLRYLIEEANITQRQLADALHISPSALNGYINQGKEPDYATLVRIADYFHTSTDYLLGHSNIR	-0.806
HMGLQEADKQDRIARMKELISFLNEAAKAYYQEGREIVSNLEYDKAYDALLSLEKESGVVLSGSPSQNVG	0.321
HMDAMMQRLERLKELASSADGSKDYLILGPLRRDLAKLMALEDPKLRQGAEELDRKILAILS	-0.477
HMEMKMGHIISKLRYESGYSQVELAEKIGITKGAVGMYETDKRKPDYDTLIKLADLFNVSTDYLLS	-0.378
HMIQAGDLVFIWNPKKGDNFLIKVTPGMSQGTHFGQIKHTELMEREYGEGIVTPKGEVYYLLRPTLAGYTR	-1.21
HMQDSIYYAQYRINIRNMPSSEGMVISRASVGEALEVLDWQEQWSKVRKQSGVEGYVASRLLTK	-2.34
HMTETFVLNLRQPIAAAPVLPGYRVARTDEQTLEVEVSKDQNLNEIFTALSALGVEVLSMRNK	-0.0438
HMAAADLNMRAKLADLGGMSYGELSIWEKTHGMEFAAWEHEWEKLNSGTQADGLKFPKHLPEGFPT	0.185
HMDINVDILPLLKTMTDTLRKVIELDIPFLKDARVQRVNSLDELLLRADITTAEKFRKVFEAYQIEADFGK	-0.976
HMDPAFAQHHDRALSILHSRGYEVHDSDTDLHWARPVLEFEAYKGSLEYKIVMSYPDLNIIEERVD	-0.906
HMSPSTNKTFSFSKENISIGQTVFIKKLNQNATVLTLPNKSNQLQVQFGVITMNVKLEDLALPTN	-2.62
HMSILSRREHEIMQWVKGGKTNIEIAQILGISARTVRNHLQNVFRKLDVINRAQAVFEVERRR	-2.68
HMVNIAVMTVSDTRTEADDKSGSLLVSKIEGDGHVLADRAIITDDVPRIIAKLKEWIESPQVDVVVT	-0.0813
HMEVLSYYGSRGQEVVNIQTKLKQWGYYKGNIDGIFGNLTYQAVREFQRKNGLKVDGIVGPETLAALGLPT	-2.64
HMVLRPDDVEDSLWREWVSHRKAKRAAVTEGVLKTFRQEATKASFTLADAMRKSIDRGWTGFEAEWVARET	-0.299
HMLNPVEKLLLLSQLYIGRLKGSFVVKEKHHKSTILGEVRELSPEEITLKTDEGYRLIRVDDILTIQL	-4.44
HMGIIQAQIPGLVSRLFVKKGDKVAVNQRLFILEAMKMENEIDSPIQGMVEKIHITTGSKVEKGDLIMEIV	-2.9
HMLGERIRRLRKEMGMSVTELARRVKTSPSYISEIEKGEKTPSLNLLVRIASELRTGIDYLTGL	-0.922
HMFDVRWEQGYALAAAYAQEYGNLDVPRDYKTADGKKLGRWIQSQEQAYEQKKLSEEQISRLEMIGMQWG	-0.98
